B1: Sta006 (other)
chain: MASCGNQGEKNNKAETKSYKMDDGKTVDIPKDPKRIAVVAPTYAGGLKKLGANIVAVNQQVDQSKVLKDKFKGVTKIGDGDVEKVAKEKPDLIIVYSTDKDIKKYQKVAPTVVVDYNKHKYLEQQEMLGKIVGKEDKVKAWKKDWEETTAKDGKEIKKAIGQDATVSLFDEFDKKLYTYGDNWGRGGEVLYQAFGLKMQPEQQKLTAKAGWAEVKQEEIEKYAGDYIVSTSEGKPTPGYESTNMWKNLKATKEGHIVKVDAGTYWYNDPYTLDFMRKDLKEKLIKAAK
notes: Seen as monomer and dimer in the formulations

Assays:
Sta006 = target: B1; assay: capillary electrophoresis (SDS-MW) of tetravalent formulation, pH 6, no EDTA, 25 C up to 72 h; attributed to redox reactions
Protocol: (§1) Capillary Electrophoresis analyses were performed with a Beckman Coulter PA800 instrument, SDS-MW application. The sample was prepared by mixing 90 μL of the pre-lyophilized formulation with 10 μL of TRIS-SDS buffer.

[1] = target: the molecule itself; assay: capillary electrophoresis (SDS-MW) of tetravalent formulation, pH 6, no EDTA, 25 C up to 72 h; self-association (disulfide-linked dimer)
Protocol: as §1

[2] = target: the molecule itself; assay: SEC-HPLC of tetravalent pre-lyophilized formulation; self-association (dimer peak)

Row | Binder | binding result (Sta006) | binding result [1] | binding result [2]
1 | EsxAB hybrid polypeptide (other, also called EsxAB monomer) MAMIKMSPEEIRAKSQSYGQGSDQIRQILSDLTRAQGEIAANWEGQAFSRFEEQFQQLSPKVEKFAQLLEEIKQQLNSTADAVQEQDQQLSNNFGLQASGGGSGGYKGIKADGGKVDQAKQLAAKTAKDIEACQKQTQQLAEYIEGSDWEGQFANKVKDVLLIMAKFQEELVQPMADHQKAIDNLSQNLAKYDTLSIKQGLDRVNP | binds | binds | 
2 | B1 |  |  | binds

From US20150044251A1 (Novartis, published 2015)
